Here are results for two molecules from patent US20240343810A1 (published 2024).

Experiment [1] has as its target T1, human ICOS-mFc (Chimerigen) (human, UniProt Q9Y6W8 21-140).
T1 construct: Bought; also called recombinant human ICOS protein; hICOS; not shown: mouse Fc of the bought fusion
T1 sequence: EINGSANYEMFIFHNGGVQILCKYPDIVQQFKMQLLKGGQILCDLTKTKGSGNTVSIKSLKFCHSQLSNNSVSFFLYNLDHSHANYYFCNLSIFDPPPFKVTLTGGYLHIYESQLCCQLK
Nature of the experiment: HTRF, human ICOS-mFc, competitor human B7-H2-Alexa 647, n3. As to the method: 5 μl of human ICOS-mFc (Chimerigen) at 20 nM (5 nM final) or 5 ul of mouse ICOS-mFc (Chimerigen) at 4 nM (1 nM final) were added to relevant assay wells. Plate was incubated for 1 hour (hr) at room temperature (RT).
After incubation, assay was read on Envision plate reader (Perkin Elmer) using a standard HTRF protocol. 620 nm and 665 nm channel values were exported to Microsoft Excel and % Delta-F and % Neutralisation calculations performed. Titration curves and IC50 values [M] were plotted using Graphpad (Prism). IC50 values were calculated by first transforming the data using equation X=Log(X). The transformed data was then fitted using nonlinear regression, using fitting algorithm, log (inhibitor) vs. response—variable slope (four parameters).

Experiment [2] deals with T2, human PD-L1 expressed on cells (human, UniProt Q9NZQ7 19-290).
T2 construct: also called CHO-S cells transfected with the cDNA coding for human PD-L1; CHO human PD-L1
T2 sequence (Q9NZQ7 19-290 limits assumed): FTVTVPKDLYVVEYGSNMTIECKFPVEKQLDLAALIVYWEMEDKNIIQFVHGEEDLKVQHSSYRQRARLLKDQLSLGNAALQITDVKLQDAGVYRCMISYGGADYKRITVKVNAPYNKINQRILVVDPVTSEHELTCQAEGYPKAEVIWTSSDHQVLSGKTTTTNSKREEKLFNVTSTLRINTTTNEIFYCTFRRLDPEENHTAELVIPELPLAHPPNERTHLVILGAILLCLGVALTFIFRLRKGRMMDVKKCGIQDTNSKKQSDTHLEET
The experiment can be described thus: Flow cytometry on CHO human PD-L1 cells.

The target of experiment [3] is T3, human ICOS expressed on cells (human, UniProt Q9Y6W8 21-199).
T3 sequence: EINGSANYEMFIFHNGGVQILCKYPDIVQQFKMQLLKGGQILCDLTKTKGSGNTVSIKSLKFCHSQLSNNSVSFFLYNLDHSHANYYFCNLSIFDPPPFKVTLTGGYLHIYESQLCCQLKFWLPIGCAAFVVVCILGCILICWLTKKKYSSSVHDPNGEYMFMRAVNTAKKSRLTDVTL
The experiment can be described thus: cell-based or functional assay.

Experiment [4] addresses T1, human ICOS-mFc (Chimerigen). The experiment can be described thus: DELFIA ELISA on coated human ICOS-mFc, N=2. As to the method:
Recombinant ICOS proteins, human ICOS-mFc or mouse ICOS-mFc (Chimerigen) were diluted in 1×PBS and added to Black Hi-bind plates (Griener) at 1 μg/ml, 50 μl/well. Recombinant PD-L1 proteins, human PD-L1-Flag-His or mouse-His were diluted in 1×PBS and added to Black Hi-bind plates (Griener) at 4 μg/ml, 50 μl/well. The plates were left overnight at 4° C. The next day plates were washed 3× with 300 μl/well of 1×PBS+0.1% Tween and blocked with 200 ul/well of 1×PBS+1% BSA blocking buffer for 1 hr at RT on a plate shaker. Plates were washed 3× with 300 μl/well of 1×PBS+0.1% Tween.
However, human-PD-L1 mAb² antibodies were diluted in 1×PBS+0.1% BSA buffer and diluted 1 in 2 from a starting working concentration of 0.066 μM over an 11 point titration. Titrated antibodies were added to the plates, 50 μl/well and left to incubate for 1 hr at R.T on a plate shaker. Plates were washed 3× with 300 μl/well of 1×PBS+0.1% Tween.
DELFIA® Eu-labelled Anti-human IgG (Perkin-Elmer) was diluted 1:500 in DELFIA Assay buffer (Perkin-Elmer) and added to the assay plate (50 μl/well), left to incubate for 1 hr at RT on a plate shaker. […] After incubation, assay was read on Envision plate reader (Perkin Elmer), Time-resolved fluorescence (TRF) was measured at 615 nm.

Experiment [5] has as its target T4, Biotinylated human ICOS protein (human, UniProt Q9Y6W8 21-140, limits assumed, biotinylated (sites not given)).
T4 construct: Captured on the NLC chip in the avidity SPR
T4 sequence: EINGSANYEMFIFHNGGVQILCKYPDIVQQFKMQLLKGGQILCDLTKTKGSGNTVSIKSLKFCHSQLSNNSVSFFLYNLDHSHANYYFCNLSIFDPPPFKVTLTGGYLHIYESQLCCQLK
The experiment can be described thus: SPR ProteOn avidity format, biotinylated human ICOS on NLC chip, antibody analyte, 25 C. As to the method: Biotinylated human ICOS protein diluted at 7.5 μg/mL in running buffer (1× HBS-EP+ Buffer Technova, cat. No. H8022) was captured on a NLC sensor chip (Bio-Rad, cat No 1765021). The surface was then blocked using biocytin (Sigma Aldrich, cat No B1758) at 1 mg/mL.
The assay was carried out at 25° C.
The buffer injection (i.e. 0 nM) was used to double reference the sensorgrams. The analysis was carried out using the equilibrium model inherent to the ProteOn's analysis software for each mAb² construct.

B1: STIM001 (antibody, human IgG1, kappa)
heavy: not shown
light: DIVMTQSPLSLPVTPGEPASISCRSSQSLLHSNEYNYLDWYLQKPGQSPQLLIFLGSNRASGVPDRFSGSGSGTDFTLKITRVEAEDVGIYYCMQSLQTPLTFGGGTKVEIKRTVAAPSVFIFPPSDEQLKSGTASVVCLLNNFYPREAKVQWKVDNALQSGNSQESVTEQDSKDSTYSLSSTLTLSKADYEKHKVYACEVTHQGLSSPVTKSFNRGEC
notes: Anti-ICOS monospecific antibody, tested as human IgG1; also called STIM001 monoclonal IgG1 antibody
The molecule B1 came in with an IC50 in experiment [1] of 2.33 nM. Besides, the binding result in experiment [2] is “no binding (tested: 198 nM)”. Further, in experiment [3], the “EC50 of ADCC (specific dye release), ICOS-transfected CCRF-CEM + NK cells, Donor 326” value stood at 42.6 pM; the “EC50 of ADCC (specific dye release), ICOS-transfected CCRF-CEM + NK cells, Donor 334” value was 20.5 pM; the “EC50 of ADCC (specific dye release), ICOS-transfected CCRF-CEM + NK cells, Donor 341” value stood at 7.6 pM; the “EC50 of ADCC (specific dye release), ICOS-transfected CCRF-CEM + NK cells, column 'Median'” value amounted to 23.6 pM. For the same molecule, the EC50 in experiment [4] is 25.5 nM. In addition, the koff in experiment [5] is 0.000456 s⁻¹.

B2: STIM003 (antibody, human IgG1, kappa)
heavy: not shown
light: EIVLTQSPGTLSLSPGERATLSCRASQSVSRSYLAWYQQKRGQAPRLLIYGASSRATGIPDRFSGDGSGTDFTLSISRLEPEDFAVYYCHQYDMSPFTFGPGTKVDIKRTVAAPSVFIFPPSDEQLKSGTASVVCLLNNFYPREAKVQWKVDNALQSGNSQESVTEQDSKDSTYSLSSTLTLSKADYEKHKVYACEVTHQGLSSPVTKSFNRGEC
notes: Anti-ICOS monospecific antibody, tested as human IgG1; also called STIM003 monoclonal IgG1 antibody
In the case of B2, the IC50 in experiment [1] was 0.71 nM. Moreover, the binding result in experiment [2] is “no binding (tested: 198 nM)”. Further, in experiment [3], the “EC50 of ADCC (specific dye release), ICOS-transfected CCRF-CEM + NK cells, Donor 326” value is 21.2 pM; the “EC50 of ADCC (specific dye release), ICOS-transfected CCRF-CEM + NK cells, Donor 334” value worked out at 3.7 pM; the “EC50 of ADCC (specific dye release), ICOS-transfected CCRF-CEM + NK cells, Donor 341” value was 6.7 pM; the “EC50 of ADCC (specific dye release), ICOS-transfected CCRF-CEM + NK cells, column 'Median'” value amounted to 10.5 pM. In experiment [4], this molecule yielded an EC50 of 1.04 nM. In experiment [5], this molecule returned a koff of 0.000449 s⁻¹.

By IC50 is commonly meant the concentration needed to halve the response being measured. The low end stands for greater potency, the high end for weaker potency. In general, EC50 refers to the concentration that produces a half-maximal response. Read a low EC50 as greater potency. Usually koff stands for the first-order rate constant of dissociation.
